Test results from the Immune Epitope Database (IEDB).

Tests used:
HLA-B*08:01 = test: IEDB peptide-MHC binding, purified MHC/competitive/radioactivity; filed as Kd, often an IC50 or EC50 that approximates it; ≥ and ≤ were set here for values at or beyond the usual limits of such assays
HLA-A*02:01 [1] = test: as above
HLA-A*68:02 = test: as above
HLA-A*01:01 = test: as above
HLA-A*11:01 = test: as above; conditions: source organism: Mammarenavirus machupoense
HLA-B*54:01 = test: as above
HLA-B*40:01 = test: as above
HLA-B*15:01 = test: as above
HLA-B*57:01 = test: IEDB peptide-MHC binding, purified MHC/direct/fluorescence; filed as Kd, often an IC50 or EC50 that approximates it; ≥ and ≤ were set here for values at or beyond the usual limits of such assays; conditions: source organism: Mycobacterium tuberculosis str. Haarlem
HLA-B*58:01 = test: as above; conditions: source organism: Mycobacterium tuberculosis
HLA-A*03:01 = test: IEDB peptide-MHC binding, purified MHC/competitive/radioactivity; filed as Kd, often an IC50 or EC50 that approximates it; ≥ and ≤ were set here for values at or beyond the usual limits of such assays; conditions: source organism: Dengue virus 4 Philippines/H241/1956
HLA-A*30:02 = test: as above
HLA-A*02:02 = test: as above; conditions: source organism: Vaccinia virus WR
HLA-A*02:03 = test: as above
HLA-A*02:06 = test: as above
HLA-A*02:01 [2] = test: IEDB peptide-MHC binding, purified MHC/competitive/fluorescence; filed as Kd, often an IC50 or EC50 that approximates it; ≥ and ≤ were set here for values at or beyond the usual limits of such assays; conditions: source organism: Vaccinia virus
HLA-B*07:02 = test: IEDB peptide-MHC binding, purified MHC/competitive/radioactivity; filed as Kd, often an IC50 or EC50 that approximates it; ≥ and ≤ were set here for values at or beyond the usual limits of such assays
HLA-B*35:01 = test: as above
HLA-B*51:01 [3] = test: as above
HLA-B*53:01 = test: as above
HLA-B*51:01 [4] = test: IEDB peptide-MHC binding, purified MHC/competitive/fluorescence; filed as Kd, often an IC50 or EC50 that approximates it; ≥ and ≤ were set here for values at or beyond the usual limits of such assays; conditions: source organism: Mycobacterium tuberculosis H37Ra
HLA-A*26:01 = test: IEDB peptide-MHC binding, purified MHC/competitive/radioactivity; filed as Kd, often an IC50 or EC50 that approximates it; ≥ and ≤ were set here for values at or beyond the usual limits of such assays; conditions: source organism: Dengue virus 1 Brazil/97-11/1997
HLA-A*32:01 = test: as above; conditions: source organism: Vaccinia virus WR
[5] = source organism: Dengue virus 4 Philippines/H241/1956
[6] = source organism: Dengue virus 1 Brazil/97-11/1997
[7] = source organism: Dengue virus 3 Martinique/1243/1999
[8] = source organism: Vaccinia virus WR
[9] = source organism: Dengue virus 2 Jamaica/1409/1983
[10] = source organism: SARS coronavirus Tor2
[11] = source organism: Triticum aestivum

Q: With RKSGKKVIQL as the sequence, how does the Kd (HLA-B*08:01; [5]) read?
A: 301 nM

Q: Which Kd (HLA-A*02:01 [1]; source organism: Homo sapiens) does the source give for ELESQISEL here?
A: ≥ 78100 nM

Q: And the Kd (HLA-A*68:02; source organism: Homo sapiens)?
A: ≥ 60000 nM

Q: Which Kd (HLA-B*08:01; [6]) does the source give for LAKRFSKGLL here?
A: 2530 nM

Q: With STANVSLAAI as the sequence, how does the Kd (HLA-A*01:01; [7]) read?
A: ≥ 47800 nM

Q: And the Kd (HLA-A*68:02; [7])?
A: 2.12 nM

Q: With MLNNSFYYM as the sequence, how does the Kd (HLA-A*11:01) read?
A: 195 nM

Q: What about the Kd (HLA-B*54:01; source organism: Mammarenavirus machupoense) of the same sequence?
A: 7520 nM

Q: How did the Kd (HLA-A*68:02; [6]) turn out when NTTANISLTA was run?
A: 44.6 nM

Q: VEAGRTLRVL was tested. Which Kd (HLA-B*40:01; source organism: Dengue virus 2 Peru/IQT2913/1996) did it give?
A: 12.1 nM

Q: For RMFHFFEHE, which Kd (HLA-B*15:01; [8]) is on record?
A: 66.9 nM

Q: With LNINKNGSF as the sequence, how does the Kd (HLA-B*15:01; [8]) read?
A: 479 nM

Q: For SNAAIGAVF, which Kd (HLA-B*15:01; [6]) is on record?
A: 77.8 nM

Q: Which Kd (HLA-B*57:01) does the source give for GAITSAHFM here?
A: 687 nM

Q: What about the Kd (HLA-B*58:01) of the same sequence?
A: 905 nM

Q: How did the Kd (HLA-B*08:01; [9]) turn out when RDALDNLAVL was run?
A: 1160 nM

Q: For ALLAGFMAY, which Kd (HLA-A*03:01) is on record?
A: 1.67 nM

Q: What about the Kd (HLA-A*30:02; [5]) of the same sequence?
A: 80 nM

Q: What about the Kd (HLA-B*15:01; [5]) of the same sequence?
A: 1.14 nM

Q: With EIFKHLVFF as the sequence, how does the Kd (HLA-B*15:01; [8]) read?
A: 12.2 nM

Q: For RSIRKFNTM, which Kd (HLA-B*08:01; [8]) is on record?
A: 16.9 nM

Q: What about the Kd (HLA-B*15:01; [8]) of the same sequence?
A: 4.38 nM

Q: Which Kd (HLA-A*02:01 [1]; [8]) does the source give for ALCKVTVPT here?
A: 31 nM

Q: And the Kd (HLA-A*02:02)?
A: 110 nM

Q: What about the Kd (HLA-A*02:03; [8]) of the same sequence?
A: 130 nM

Q: What about the Kd (HLA-A*02:06; [8]) of the same sequence?
A: 210 nM

Q: For STMTLLCLI, which Kd (HLA-A*68:02; [5]) is on record?
A: 3.75 nM

Q: With LVEKVLKIL as the sequence, how does the Kd (HLA-A*02:01 [2]) read?
A: 992 nM

Q: TVIDLEPISY was tested. Which Kd (HLA-A*01:01; [5]) did it give?
A: 8390 nM

Q: And the Kd (HLA-B*15:01; [5])?
A: 1.36 nM

Q: For AQGKPTLDF, which Kd (HLA-B*15:01; [5]) is on record?
A: 3.09 nM

Q: Which Kd (HLA-A*02:01 [1]; source organism: Homo sapiens) does the source give for FIASKGVKLV here?
A: 37 nM

Q: For ILIEGVFFA, which Kd (HLA-A*02:01 [1]; source organism: Human alphaherpesvirus 2) is on record?
A: 0.16 nM

Q: For KPLLAPHHVV, which Kd (HLA-B*07:02; [10]) is on record?
A: 179 nM

Q: What about the Kd (HLA-B*35:01; [10]) of the same sequence?
A: ≥ 69900 nM

Q: And the Kd (HLA-B*51:01 [3]; [10])?
A: ≥ 69600 nM

Q: What about the Kd (HLA-B*53:01; [10]) of the same sequence?
A: ≥ 69900 nM

Q: And the Kd (HLA-B*54:01; [10])?
A: 7250 nM

Q: With NQYLLTMFF as the sequence, how does the Kd (HLA-B*15:01; [8]) read?
A: 1.21 nM

Q: Which Kd (HLA-B*51:01 [4]) does the source give for LPVPLFPGF here?
A: 249 nM

Q: For KRKLRTLIL, which Kd (HLA-B*08:01; [6]) is on record?
A: 462 nM

Q: YMGEDGCWY was tested. Which Kd (HLA-A*01:01; [7]) did it give?
A: 177 nM

Q: What about the Kd (HLA-A*30:02; [7]) of the same sequence?
A: ≥ 36900 nM

Q: And the Kd (HLA-B*15:01; [7])?
A: 14.8 nM

Q: What does the source list for DTAWDFGSI?
A: Kd (HLA-A*26:01): 562 nM; Kd (HLA-A*68:02; [6]): 3.09 nM

Q: How did the Kd (HLA-A*02:06; source organism: Homo sapiens) turn out when ELVENGKKV was run?
A: 9570 nM

Q: And the Kd (HLA-A*68:02; source organism: Homo sapiens)?
A: 6350 nM

Q: Which Kd (HLA-A*02:03; [6]) does the source give for MVSAGSGEV here?
A: 94.6 nM

Q: What about the Kd (HLA-A*68:02; [6]) of the same sequence?
A: 29.6 nM

Q: For TTAEEAAGI, which Kd (HLA-A*02:01 [1]; source organism: Homo sapiens) is on record?
A: 4170 nM

Q: For QNHKKSAHF, which Kd (HLA-B*15:01; [8]) is on record?
A: 412 nM

Q: YVFFEIIHF was tested. Which Kd (HLA-B*15:01; source organism: Vaccinia virus Copenhagen) did it give?
A: 0.692 nM

Q: With QETWNRQDLL as the sequence, how does the Kd (HLA-B*40:01; [6]) read?
A: 9.21 nM

Q: VEETNMITL was tested. Which Kd (HLA-B*40:01; source organism: Dengue virus 4 Dominica/814669/1981) did it give?
A: 27.1 nM

Q: QLQPFLQPQL was tested. Which Kd (HLA-A*02:01 [1]; [11]) did it give?
A: ≥ 10000 nM

Q: QPFPSQQPYL was tested. Which Kd (HLA-B*07:02; [11]) did it give?
A: 17500 nM

Q: What about the Kd (HLA-B*35:01; [11]) of the same sequence?
A: 433 nM

Q: What about the Kd (HLA-B*51:01 [3]; [11]) of the same sequence?
A: 10.3 nM

Q: And the Kd (HLA-B*53:01; [11])?
A: 8540 nM

Q: And the Kd (HLA-B*54:01; [11])?
A: 10800 nM

Q: What does the source list for RPLMESELVI?
A: Kd (HLA-B*07:02; [10]): 666 nM; Kd (HLA-B*35:01; [10]): 395 nM; Kd (HLA-B*51:01 [3]; [10]): 32.9 nM; Kd (HLA-B*53:01; [10]): 217 nM; Kd (HLA-B*54:01; [10]): ≥ 46000 nM

Q: Which Kd (HLA-A*32:01) does the source give for MAMFYAHAL here?
A: 12500 nM

Q: What about the Kd (HLA-B*08:01; [8]) of the same sequence?
A: 1.15 nM

Q: Which Kd (HLA-A*02:06; [9]) does the source give for MTDDIGMGV here?
A: 7.05 nM

Q: And the Kd (HLA-A*68:02; [9])?
A: 5.13 nM

Q: What does the source list for SLNALFVML?
A: Kd (HLA-A*32:01): 1230 nM; Kd (HLA-B*08:01; [8]): 1260 nM

Q: How did the Kd (HLA-A*02:01 [1]; source organism: Homo sapiens) turn out when SMPDFDLHL was run?
A: 5.2 nM
